Measured values reported in paper PMC5389731 (Nucleic Acids Research, 2017).

What was measured:
[1] = target: T1, CcdA2 (antitoxin dimer);CcdB2 (toxin dimer) (Escherichia coli (F …, UniProt P62552;P62554 1-72;1-101, |)); assay: EMSA
[2] = target: T1, CcdA2 (antitoxin dimer);CcdB2 (toxin …); assay: ITC
[3] = target: T2, toxin CcdB2 (F plasmid CcdB dimer) (E. coli F plasmid, UniProt P62554 1-101); assay: ITC
[4] = target: T1, CcdA2 (antitoxin dimer);CcdB2 (toxin …); assay: EMSA; remark: listed apart in the source
[5] = target: T2, toxin CcdB2 (F plasmid CcdB dimer); assay: ITC; remark: listed apart in the source

B1: Ccd3 (3 binding sites) (dsDNA)
DNA 1: ACGTGCGGTATAAGAATATATACTGATATGTATACCCGAATA
DNA 2: TATTCGGGTATACATATCAGTATATATTCTTATACCGCACGT
B1: binds [1].

B2: CcdITC (3 binding sites) (dsDNA)
DNA 1: GCGGTATAAGAATATATACTGATATGTATACCC
DNA 2: GGGTATACATATCAGTATATATTCTTATACCGC
B2: binds [2].

RRLRAERWKAENQEGMAEVARFIEMNGSFADENRDW (peptide, UniProt P62552 37-72, looked up) [CcdAC, truncated CcdA comprising the entire C-terminal domain (CcdA^37-72)]: binds [3].

B3: Random (dsDNA)
DNA 1: TGCCCAAGTGATGCTAAACAAGACTTAGCTGGTTCCTGTGTT
DNA 2: AACACAGGAACCAGCTAAGTCTTGTTTAGCATCACTTGGGCA
B3: no binding [4].

B4: antitoxin CcdA2 (F plasmid CcdA dimer, full length) (natural protein, E. coli F plasmid, UniProt P62552 1-72, looked up)
chain: MKQRITVTVDSDSYQLLKAYDVNISGLVSTTMQNEARRLRAERWKAENQEGMAEVARFIEMNGSFADENRDW
In the case of B4, the “difference between the high and low affinity binding constants” value [5] is reported as ~1e+06 fold.
